Measurements: the Immune Epitope Database (IEDB)
pIC50: −log10 of the molar value.

Experiments:
Assay in all cases: IEDB peptide-MHC binding, purified MHC/competitive/radioactivity; ≥ and ≤ were set here for values at or beyond the usual limits of such assays
Settings in all cases: source organism: Bordetella pertussis
HLA-B*53:01 = target: HLA-B*53:01
HLA-B*57:01 = target: HLA-B*57:01
HLA-B*35:01 = target: HLA-B*35:01
HLA-A*02:01 = target: HLA-A*02:01
HLA-B*44:03 = target: HLA-B*44:03

Sequence | pIC50 (HLA-B*53:01) | pIC50 (HLA-B*57:01) | further results
CPSSLGNGV | 4.58 |  | 
DAGHEHDTW |  | 4.48 | 
EATEGDATL | 4.34 |  | pIC50 (HLA-B*35:01): 4.16
GVGLASTLW | 4.90 | 4.73 | 
KAGKLSATG |  | 4.34 | 
KSYTLRYLA |  | 6.58 | 
LLHHILPIL |  |  | pIC50 (HLA-A*02:01): 5.83
LSSPSAITV |  | ≤ 4.15 | 
LTWLAILAV |  |  | pIC50 (HLA-A*02:01): 5.39
QADRDFVWY | 4.57 |  | pIC50 (HLA-B*44:03): 4.42
RAGLSPATW | 4.57 |  | 
RGFAQRQQL |  | 4.27 | 
SVAPNALAW | 6.01 |  | pIC50 (HLA-B*35:01): 4.25
TSPYDGKYW |  | ≤ 4.15 | 
YFEPGPTTD | 4.16 |  | 
YTLRYLASY |  | 9.12 | pIC50 (HLA-B*35:01): 5.45
